Consider four molecules from article PMC12343898.

For series [1], the target named is T1, OsLHY (Oryza sativa, UniProt A0A0P0XBU0 1-719). The series is described as follows: competition.
The target in series [2] is T1, OsLHY. The experiment in a line: competition. The source holds these as a separate data set.
For series [3], the target named is T1, OsLHY. The experiment in a line: EMSA. In general terms: A gel shift assay detects complexes by their altered migration in electrophoresis.
Another series addresses T2, OsNAC15 (Oryza sativa, UniProt K9LKF1 1-301).
T2 sequence: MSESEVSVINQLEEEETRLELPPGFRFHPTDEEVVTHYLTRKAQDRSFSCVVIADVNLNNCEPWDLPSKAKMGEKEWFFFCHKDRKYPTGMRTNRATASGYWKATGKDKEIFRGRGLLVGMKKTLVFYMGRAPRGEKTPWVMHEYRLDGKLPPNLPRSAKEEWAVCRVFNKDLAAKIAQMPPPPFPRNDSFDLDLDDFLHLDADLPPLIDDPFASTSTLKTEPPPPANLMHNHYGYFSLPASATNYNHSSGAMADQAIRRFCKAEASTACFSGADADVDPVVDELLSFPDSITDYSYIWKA
The experiment in a line: EMSA.

T1 sequence (A0A0P0XBU0 whole entry): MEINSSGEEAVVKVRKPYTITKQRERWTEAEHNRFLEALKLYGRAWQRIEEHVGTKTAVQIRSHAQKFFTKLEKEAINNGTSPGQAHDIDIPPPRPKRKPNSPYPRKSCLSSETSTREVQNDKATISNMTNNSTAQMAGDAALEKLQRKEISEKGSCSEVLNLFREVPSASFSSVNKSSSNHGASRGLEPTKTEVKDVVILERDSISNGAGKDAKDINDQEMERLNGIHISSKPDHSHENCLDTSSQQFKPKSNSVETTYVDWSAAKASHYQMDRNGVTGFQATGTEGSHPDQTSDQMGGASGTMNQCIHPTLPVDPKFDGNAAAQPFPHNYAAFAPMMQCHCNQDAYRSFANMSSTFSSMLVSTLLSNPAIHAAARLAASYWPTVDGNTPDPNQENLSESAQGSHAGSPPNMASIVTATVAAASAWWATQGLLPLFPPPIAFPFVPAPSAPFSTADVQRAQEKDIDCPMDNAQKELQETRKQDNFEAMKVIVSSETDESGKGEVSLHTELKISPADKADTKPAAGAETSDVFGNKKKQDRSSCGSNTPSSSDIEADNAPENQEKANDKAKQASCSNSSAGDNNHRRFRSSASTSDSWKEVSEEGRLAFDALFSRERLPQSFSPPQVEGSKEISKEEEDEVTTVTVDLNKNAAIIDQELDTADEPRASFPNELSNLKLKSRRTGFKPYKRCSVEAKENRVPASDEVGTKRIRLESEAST

B1: OsLHY mCold probe, 3x AAGGCGCCC (dsDNA)
DNA 1: AAGGCGCCCAAGGCGCCCAAGGCGCCC
DNA 2: GGGCGCCTTGGGCGCCTTGGGCGCCTT
Consider B1, for which the binding result with OsLHY [1] is given as “no binding”.

B2: OsLHY Cold probe, 3x AAGATATTT (dsDNA)
DNA 1: AAGATATTTAAGATATTTAAGATATTT
DNA 2: AAATATCTTAAATATCTTAAATATCTT
As to B2, in the series with OsLHY [2], the binding result is given as “binds”.

B3: OsLHY Bio-probe, 3x AAGATATTT (dsDNA)
DNA 1: AAGATATTTAAGATATTTAAGATATTT
DNA 2: AAATATCTTAAATATCTTAAATATCTT
B3: in the series with OsLHY [3], the binding result was “binds”.

B4: OsNAC15 Bio-probe, 3x AGCAAGA (dsDNA)
DNA 1: AGCAAGAAGCAAGAAGCAAGA
DNA 2: TCTTGCTTCTTGCTTCTTGCT
For the molecule B4, in the series with OsNAC15, the binding result is “binds”.
